{"source": "paper PMC10786891", "about": "“Massively parallel profiling of RNA-targeting CRISPR-Cas13d”", "binders": {"B1": {"name": "target 1 MT 5'PFS ACU 3'PFS AUU (mixed)", "RNA 1": "CACCCGUGCAAAAAUGCAGGGGUCUAAAACUGAGCGGAUAACCUCUCUAUGG", "RNA 2": "GGGAAUGGAUCCACAUCUACGAAUUCACUCCAUAGAGAGGUUAUCCGCUCAAUUAGAUCGGAAGAGCACACGU"}, "B2": {"name": "target 1 MT 5'PFS AGG 3'PFS UAG (mixed)", "RNA 1": "B1 RNA 1", "RNA 2": "B1 RNA 2 with C28G, U29G, A52U, U53A, U54G"}, "B3": {"name": "target 1 MT 5'PFS UAA 3'PFS AGG (mixed)", "RNA 1": "B1 RNA 1", "RNA 2": "B1 RNA 2 with A27U, C28A, U29A, U53G, U54G"}, "B4": {"name": "target 1 MT 5'PFS UAA 3'PFS AGA (mixed)", "RNA 1": "B1 RNA 1", "RNA 2": "B1 RNA 2 with A27U, C28A, U29A, U53G, U54A"}, "B5": {"name": "target 1 MT 5'PFS GGC 3'PFS UUC (mixed)", "RNA 1": "B1 RNA 1", "RNA 2": "B1 RNA 2 with A27G, C28G, U29C, A52U, U54C"}, "B6": {"name": "target 1 MT 5'PFS UGG 3'PFS UCG (mixed)", "RNA 1": "B1 RNA 1", "RNA 2": "B1 RNA 2 with A27U, C28G, U29G, A52U, U53C, U54G"}, "B7": {"name": "target 1 MT 5'PFS GCU 3'PFS CAA (mixed)", "RNA 1": "B1 RNA 1", "RNA 2": "B1 RNA 2 with A27G, A52C, U53A, U54A"}, "B8": {"name": "target 1 MT 5'PFS UCG 3'PFS UGA (mixed)", "RNA 1": "B1 RNA 1", "RNA 2": "B1 RNA 2 with A27U, U29G, A52U, U53G, U54A"}, "B9": {"name": "target 1 C4A,C7A (mixed)", "RNA 1": "B1 RNA 1", "RNA 2": "B1 RNA 2 with A27G, C28U, U29A, C45A, C48A, A52C, U53C, U54G"}, "B10": {"name": "target 1 G13C,G15U (mixed)", "RNA 1": "B1 RNA 1", "RNA 2": "B1 RNA 2 with A27G, C28U, U29A, G37U, G39C, A52C, U53C, U54G"}, "B11": {"name": "target 1 MT 5'PFS ACG 3'PFS UAA (mixed)", "RNA 1": "B1 RNA 1", "RNA 2": "B1 RNA 2 with U29G, A52U, U53A, U54A"}, "B12": {"name": "target 1 MT 5'PFS CUC 3'PFS CGA (mixed)", "RNA 1": "B1 RNA 1", "RNA 2": "B1 RNA 2 with A27C, C28U, U29C, A52C, U53G, U54A"}, "B13": {"name": "target 1 MT 5'PFS UAA 3'PFS CAG (mixed)", "RNA 1": "B1 RNA 1", "RNA 2": "B1 RNA 2 with A27U, C28A, U29A, A52C, U53A, U54G"}, "B14": {"name": "target 1 MT 5'PFS UCC 3'PFS UUU (mixed)", "RNA 1": "B1 RNA 1", "RNA 2": "B1 RNA 2 with A27U, U29C, A52U"}, "B15": {"name": "target 1 MT 5'PFS GCU 3'PFS CAU (mixed)", "RNA 1": "B1 RNA 1", "RNA 2": "B1 RNA 2 with A27G, A52C, U53A"}, "B16": {"name": "target 1 MT 5'PFS UAC 3'PFS AUU (mixed)", "RNA 1": "B1 RNA 1", "RNA 2": "B1 RNA 2 with A27U, C28A, U29C"}, "B17": {"name": "target 1 MT 5'PFS GAA 3'PFS AAU (mixed)", "RNA 1": "B1 RNA 1", "RNA 2": "B1 RNA 2 with A27G, C28A, U29A, U53A"}, "B18": {"name": "target 1 MT 5'PFS GCC 3'PFS CGG (mixed)", "RNA 1": "B1 RNA 1", "RNA 2": "B1 RNA 2 with A27G, U29C, A52C, U53G, U54G"}, "B19": {"name": "target 1 MT 5'PFS AGG 3'PFS UAU (mixed)", "RNA 1": "B1 RNA 1", "RNA 2": "B1 RNA 2 with C28G, U29G, A52U, U53A"}, "B20": {"name": "target 1 MT 5'PFS AGG 3'PFS UAC (mixed)", "RNA 1": "B1 RNA 1", "RNA 2": "B1 RNA 2 with C28G, U29G, A52U, U53A, U54C"}, "B21": {"name": "target 1 MT 5'PFS GCC 3'PFS CGU (mixed)", "RNA 1": "B1 RNA 1", "RNA 2": "B1 RNA 2 with A27G, U29C, A52C, U53G"}, "B22": {"name": "target 1 MT 5'PFS AAU 3'PFS AAC (mixed)", "RNA 1": "B1 RNA 1", "RNA 2": "B1 RNA 2 with C28A, U53A, U54C"}, "B23": {"name": "target 1 MT 5'PFS UAC 3'PFS AUG (mixed)", "RNA 1": "B1 RNA 1", "RNA 2": "B1 RNA 2 with A27U, C28A, U29C, U54G"}, "B24": {"name": "target 1 MT 5'PFS GCC 3'PFS CGC (mixed)", "RNA 1": "B1 RNA 1", "RNA 2": "B1 RNA 2 with A27G, U29C, A52C, U53G, U54C"}, "B25": {"name": "target 1 MT 5'PFS UCC 3'PFS UUG (mixed)", "RNA 1": "B1 RNA 1", "RNA 2": "B1 RNA 2 with A27U, U29C, A52U, U54G"}, "B26": {"name": "target 1 MT 5'PFS UCG 3'PFS UGU (mixed)", "RNA 1": "B1 RNA 1", "RNA 2": "B1 RNA 2 with A27U, U29G, A52U, U53G"}, "B27": {"name": "target 1 MT 5'PFS UAA 3'PFS CAA (mixed)", "RNA 1": "B1 RNA 1", "RNA 2": "B1 RNA 2 with A27U, C28A, U29A, A52C, U53A, U54A"}, "B28": {"name": "target 1 MT 5'PFS CUG 3'PFS AUG (mixed)", "RNA 1": "B1 RNA 1", "RNA 2": "B1 RNA 2 with A27C, C28U, U29G, U54G"}, "B29": {"name": "target 1 MT 5'PFS CUG 3'PFS AUA (mixed)", "RNA 1": "B1 RNA 1", "RNA 2": "B1 RNA 2 with A27C, C28U, U29G, U54A"}, "B30": {"name": "target 1 MT 5'PFS CCC 3'PFS UAA (mixed)", "RNA 1": "B1 RNA 1", "RNA 2": "B1 RNA 2 with A27C, U29C, A52U, U53A, U54A"}, "B31": {"name": "target 1 MT 5'PFS CAG 3'PFS UGA (mixed)", "RNA 1": "B1 RNA 1", "RNA 2": "B1 RNA 2 with A27C, C28A, U29G, A52U, U53G, U54A"}, "B32": {"name": "target 1 insG 3' of 14,insG 3' of 8 (mixed)", "RNA 1": "B1 RNA 1", "RNA 2": "GGGAAUGGAUCCACAUCUACGAAUUCGUACCAUAGAGAGGGUUAUGCCGCUCACCGAGAUCGGAAGAGCACACGU"}, "B33": {"name": "target 1 U3G,G15A (mixed)", "RNA 1": "B1 RNA 1", "RNA 2": "B1 RNA 2 with A27G, C28U, U29A, G37A, U49G, A52C, U53C, U54G"}, "B34": {"name": "target 1 MT 5'PFS ACU 3'PFS AUA (mixed)", "RNA 1": "B1 RNA 1", "RNA 2": "B1 RNA 2 with U54A"}, "B35": {"name": "target 1 MT 5'PFS AGG 3'PFS UCC (mixed)", "RNA 1": "B1 RNA 1", "RNA 2": "B1 RNA 2 with C28G, U29G, A52U, U53C, U54C"}, "B36": {"name": "target 1 MT 5'PFS GCC 3'PFS CGA (mixed)", "RNA 1": "B1 RNA 1", "RNA 2": "B1 RNA 2 with A27G, U29C, A52C, U53G, U54A"}, "B37": {"name": "target 1 MT 5'PFS UAC 3'PFS UCU (mixed)", "RNA 1": "B1 RNA 1", "RNA 2": "B1 RNA 2 with A27U, C28A, U29C, A52U, U53C"}, "B38": {"name": "target 1 MT 5'PFS UGG 3'PFS UCA (mixed)", "RNA 1": "B1 RNA 1", "RNA 2": "B1 RNA 2 with A27U, C28G, U29G, A52U, U53C, U54A"}, "B39": {"name": "target 1 MT 5'PFS CUG 3'PFS AUU (mixed)", "RNA 1": "B1 RNA 1", "RNA 2": "B1 RNA 2 with A27C, C28U, U29G"}, "B40": {"name": "target 1 MT 5'PFS ACU 3'PFS AUC (mixed)", "RNA 1": "B1 RNA 1", "RNA 2": "B1 RNA 2 with U54C"}}, "note": "Numbering of substitutions follows the chain as printed. Names may count otherwise."}
{"biological_target": "T1, EsCas13d, nuclease-dead (Eubacterium siraeum, UniProt B0MS50, R295A;H300A;R849A;H854A)", "T1 sequence": "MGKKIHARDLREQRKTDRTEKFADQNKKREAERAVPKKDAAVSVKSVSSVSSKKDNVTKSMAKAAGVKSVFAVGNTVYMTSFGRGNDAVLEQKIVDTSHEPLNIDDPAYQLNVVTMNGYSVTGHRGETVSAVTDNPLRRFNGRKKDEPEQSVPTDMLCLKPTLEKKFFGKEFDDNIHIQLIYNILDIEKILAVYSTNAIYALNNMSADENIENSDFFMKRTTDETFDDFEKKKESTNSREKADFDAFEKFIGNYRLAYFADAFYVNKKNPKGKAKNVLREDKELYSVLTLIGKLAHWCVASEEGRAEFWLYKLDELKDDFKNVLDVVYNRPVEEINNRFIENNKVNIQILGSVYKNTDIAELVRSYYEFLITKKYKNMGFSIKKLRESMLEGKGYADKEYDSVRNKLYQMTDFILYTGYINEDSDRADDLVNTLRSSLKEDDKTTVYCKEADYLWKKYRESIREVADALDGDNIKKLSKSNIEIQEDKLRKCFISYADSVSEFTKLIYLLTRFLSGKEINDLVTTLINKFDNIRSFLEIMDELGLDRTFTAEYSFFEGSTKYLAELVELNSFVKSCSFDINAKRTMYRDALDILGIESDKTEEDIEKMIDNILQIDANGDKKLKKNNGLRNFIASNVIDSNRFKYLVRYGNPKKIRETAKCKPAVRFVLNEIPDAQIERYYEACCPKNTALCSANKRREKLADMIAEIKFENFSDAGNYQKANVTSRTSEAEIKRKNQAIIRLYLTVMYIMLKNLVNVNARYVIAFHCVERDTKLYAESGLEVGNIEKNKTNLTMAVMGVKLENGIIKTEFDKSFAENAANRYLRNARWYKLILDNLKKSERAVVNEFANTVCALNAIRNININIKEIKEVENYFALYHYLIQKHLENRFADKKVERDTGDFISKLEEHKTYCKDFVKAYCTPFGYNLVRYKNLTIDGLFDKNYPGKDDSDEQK", "experiment": "crRNA (strand 1, pre-loaded); Mg2+; 40 mM Tris-HCl pH 7.5, 150 mM NaCl, 6 mM MgCl2, 1 mM DTT, 0.1% Tween-20, 0.2 mg/ml BSA; 25 C; 10 min per concentration, then washed", "details": "tags: His6-TwinStrep-SUMO cleaved; N-terminal SNAP kept (SNAP-Surface 488); label: 3' end held by stalled T7 RNA polymerase", "units": {"Kd": "nM"}}
{"binder": "B1", "Kd": "53 ± 26"}
{"binder": "B2", "Kd": "23 ± 6.5"}
{"binder": "B3", "Kd": "~75"}
{"binder": "B4", "Kd": "37 ± 6.5"}
{"binder": "B5", "Kd": "12.9 ± 2.4"}
{"binder": "B6", "Kd": "71.5 ± 22.5"}
{"binder": "B7", "Kd": "~60"}
{"binder": "B8", "Kd": "33 ± 9.5"}
{"binder": "B9", "Kd": "6.6 ± 0.4"}
{"binder": "B10", "Kd": "66 ± 18"}
{"binder": "B11", "Kd": "13.5 ± 5"}
{"binder": "B12", "Kd": "80 ± 40"}
{"binder": "B13", "Kd": "53 ± 22"}
{"binder": "B14", "Kd": "11 ± 4"}
{"binder": "B15", "Kd": "51 ± 15"}
{"binder": "B16", "Kd": "26.5 ± 8"}
{"binder": "B17", "Kd": "40.5 ± 13"}
{"binder": "B18", "Kd": "26.1 ± 9.1"}
{"binder": "B19", "Kd": "35 ± 16.5"}
{"binder": "B20", "Kd": "32 ± 13"}
{"binder": "B21", "Kd": "10.1 ± 1.65"}
{"binder": "B22", "Kd": "47.5 ± 18.5"}
{"binder": "B23", "Kd": "43 ± 20.5"}
{"binder": "B24", "Kd": "15.5 ± 6"}
{"binder": "B25", "Kd": "13.3 ± 2.45"}
{"binder": "B26", "Kd": "57 ± 22"}
{"binder": "B27", "Kd": "~52.5"}
{"binder": "B28", "Kd": "33.5 ± 8"}
{"binder": "B29", "Kd": "5.05 ± 1.4"}
{"binder": "B30", "Kd": "~11"}
{"binder": "B31", "Kd": "~60"}
{"binder": "B32", "Kd": "9.7 ± 0.7"}
{"binder": "B33", "Kd": "17.5 ± 1"}
{"binder": "B34", "Kd": "67 ± 18"}
{"binder": "B35", "Kd": "49 ± 19"}
{"binder": "B36", "Kd": "18.5 ± 7.5"}
{"binder": "B37", "Kd": "9.9 ± 3.2"}
{"binder": "B38", "Kd": "70 ± 29"}
{"binder": "B39", "Kd": "6.05 ± 1.6"}
{"binder": "B40", "Kd": "~50"}
